Results on 2 molecules are retold here after patent publication US20050059132A1.

Series [1] deals with human wild-type activated protein C (human) (UniProt P04070). Briefly: cell-based or functional assay.
Series [2] has as its target APC mutant QGNSEDY (ALL) (human) (UniProt P04070). In words: cell-based or functional assay.
The target in series [3] is human plasma factor Va (normal, wild-type), P12259.
Series [4] has as its target R506Q FVa (FVa Leiden, activated FV:Q506), P12259.

Chain of human plasma factor Va (normal, wild-type), P12259 (P12259 29-2224): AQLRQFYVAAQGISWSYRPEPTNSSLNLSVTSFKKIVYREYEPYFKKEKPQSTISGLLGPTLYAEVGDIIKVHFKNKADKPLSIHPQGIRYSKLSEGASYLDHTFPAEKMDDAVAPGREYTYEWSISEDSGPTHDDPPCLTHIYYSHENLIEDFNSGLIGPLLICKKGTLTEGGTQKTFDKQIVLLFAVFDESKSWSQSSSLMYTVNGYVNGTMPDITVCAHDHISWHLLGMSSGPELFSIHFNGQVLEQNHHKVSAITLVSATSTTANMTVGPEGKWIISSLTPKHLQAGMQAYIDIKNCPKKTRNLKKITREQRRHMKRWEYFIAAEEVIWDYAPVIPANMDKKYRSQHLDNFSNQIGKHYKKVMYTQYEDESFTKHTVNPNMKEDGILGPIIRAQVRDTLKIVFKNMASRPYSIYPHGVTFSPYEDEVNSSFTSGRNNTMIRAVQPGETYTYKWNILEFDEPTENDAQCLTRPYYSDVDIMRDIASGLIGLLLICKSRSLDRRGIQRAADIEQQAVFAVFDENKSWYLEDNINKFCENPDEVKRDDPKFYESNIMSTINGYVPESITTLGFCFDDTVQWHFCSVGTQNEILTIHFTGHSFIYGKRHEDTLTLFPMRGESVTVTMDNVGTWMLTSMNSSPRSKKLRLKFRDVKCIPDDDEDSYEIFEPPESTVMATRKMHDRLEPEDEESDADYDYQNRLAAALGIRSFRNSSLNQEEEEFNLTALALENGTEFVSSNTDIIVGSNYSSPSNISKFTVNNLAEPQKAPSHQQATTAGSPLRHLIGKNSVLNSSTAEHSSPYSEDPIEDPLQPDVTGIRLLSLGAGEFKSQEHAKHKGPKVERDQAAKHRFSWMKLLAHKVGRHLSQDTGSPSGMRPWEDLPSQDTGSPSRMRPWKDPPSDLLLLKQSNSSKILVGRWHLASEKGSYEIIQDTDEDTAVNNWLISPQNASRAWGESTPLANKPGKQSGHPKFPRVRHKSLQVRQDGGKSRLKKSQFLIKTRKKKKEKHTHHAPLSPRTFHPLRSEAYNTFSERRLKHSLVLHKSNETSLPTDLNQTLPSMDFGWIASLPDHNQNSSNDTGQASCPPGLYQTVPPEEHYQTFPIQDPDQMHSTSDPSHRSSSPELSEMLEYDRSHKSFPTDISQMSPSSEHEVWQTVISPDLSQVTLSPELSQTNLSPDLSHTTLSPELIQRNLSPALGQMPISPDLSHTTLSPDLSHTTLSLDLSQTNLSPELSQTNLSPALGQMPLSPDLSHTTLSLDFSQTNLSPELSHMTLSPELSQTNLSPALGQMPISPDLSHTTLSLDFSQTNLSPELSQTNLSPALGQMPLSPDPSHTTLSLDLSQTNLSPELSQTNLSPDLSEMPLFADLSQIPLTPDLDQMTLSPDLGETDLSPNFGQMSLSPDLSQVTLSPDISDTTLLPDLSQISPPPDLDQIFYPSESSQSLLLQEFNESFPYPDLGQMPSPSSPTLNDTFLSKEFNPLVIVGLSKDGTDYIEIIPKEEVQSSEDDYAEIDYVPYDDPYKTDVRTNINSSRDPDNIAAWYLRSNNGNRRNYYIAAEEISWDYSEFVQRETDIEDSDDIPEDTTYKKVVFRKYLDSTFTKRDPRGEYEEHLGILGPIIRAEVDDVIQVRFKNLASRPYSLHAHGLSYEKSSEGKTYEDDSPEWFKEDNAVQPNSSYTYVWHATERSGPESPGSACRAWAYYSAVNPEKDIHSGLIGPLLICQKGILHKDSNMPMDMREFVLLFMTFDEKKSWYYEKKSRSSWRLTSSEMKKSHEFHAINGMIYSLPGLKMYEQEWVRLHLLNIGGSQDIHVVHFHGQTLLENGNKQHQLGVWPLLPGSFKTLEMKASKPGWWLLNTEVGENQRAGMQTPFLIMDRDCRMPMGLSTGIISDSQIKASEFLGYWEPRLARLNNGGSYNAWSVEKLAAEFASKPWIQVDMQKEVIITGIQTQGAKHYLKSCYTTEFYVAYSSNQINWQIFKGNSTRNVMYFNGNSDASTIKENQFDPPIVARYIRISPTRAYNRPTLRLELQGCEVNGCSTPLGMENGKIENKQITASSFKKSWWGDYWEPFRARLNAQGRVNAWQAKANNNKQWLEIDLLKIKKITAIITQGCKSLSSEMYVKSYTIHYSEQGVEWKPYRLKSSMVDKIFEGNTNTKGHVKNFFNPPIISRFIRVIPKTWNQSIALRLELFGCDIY
Chain of R506Q FVa (FVa Leiden, activated FV:Q506), P12259 (P12259 29-2224 R534Q): as the sequence (P12259 29-2224) above, with R506Q counted along it

In series [1], “human protein S (from UniProt P07225 42-676)” displayed an APTT clotting time in protein S deficient plasma with 20 nM APC, at the highest protein S concentration of 150 s and an APTT clotting time in protein S deficient plasma with 20 nM APC, in absence of protein S of 100 s. Moreover, in series [2], the APTT clotting time in protein S deficient plasma with 20 nM APC, in absence of protein S came to 160 s and the APTT clotting time in protein S deficient plasma with 20 nM APC, with protein S added worked out at 350 s.

B1: human wild-type activated protein C (protein)
chain 1: ANSFLEELRHSSLERECIEEICDFEEAKEIFQNVDDTLAFWSKHVDGDQCLVLPLEHPCASLCCGHGTCIDGIGSFSCDCRSGWEGRFCQREVSFLNCSLDNGGCTHYCLEEVGWRRCSCAPGYKLGDDLLQCHPAVKFPCGRPWKRMEKKRSHL
chain 2: LIDGKMTRRGDSPWQVVLLDSKKKLACGAVLIHPSWVLTAAHCMDESKKLLVRLGEYDLRRWEKWELDLDIKEVFVHPNYSKSTTDNDIALLHLAQPATLSQTIVPICLPDSGLAERELNQAGQETLVTGWGYHSSREKEAKRNRTFVLNFIKIPVVPHNECSEVMSNMVSENMLCAGILGDRQDACEGDSGGPMVASFHGTWFLVGLVSWGEGCGLLHNYGVYTKVSRYLDWIHGHIRDKEAPQKSWAP
As to B1, the “loss of FVa activity over time (FXa-mediated prothrombin activation assay) on incubation of 0.76 nM FVa with 0.39 nM APC” value in series [3] is listed as “the initial rapid loss of FVa activity that is observed during the first 5 minutes of incubation”. Further, in series [4], the “remaining FVa activity over time on incubation with 0.4 nM APC” value was “a slow decrease in FVa activity”.
